The target of test [1] is chicken PHT1 (purified, wild type) (chicken). Description: thermal shift (nanoDSF); TASL peptide titration: PHT1 with eleven 2-fold peptide dilutions from 100 µM; gel filtration buffer with 5% DMSO; KD fitted by a modified Hall's method.
Test [2] shares this target. Nature of the test: thermal shift (nanoDSF); concentration-dependent thermal shift of PHT1 with dipeptides; KD fitted by a modified Hall's method.

Regarding “TASL peptide with a length of 14 residues”, the dissociation constant Kd in test [1] was 0.4 µM.
For the substance Arginine-Phenylalanine dipeptide, the Kd in test [2] was 73 µM.
Same read-out and setting: then Lysine-Valine dipeptide, with 63 µM.
TASL_(1-13) peptide: the dissociation constant Kd in test [1] was 0.36 µM.

One may read the Kd as the free concentration of one partner at which half of the binding sites on the other are occupied at equilibrium, for simple one-to-one binding.

Source of the values: publication PMC10502012.
